The values that follow come from patent publication US20260274921A1.

In assay [1] the target is His-tagged CD47 extracellular domain (ECD) protein (Abclonal, CAT #RP01306) (human) (UniProt Q08722). Briefly: ELISA; pH 6.0. To be noted: Fc fusion. (In general: In an ELISA, binding on a coated surface is turned into a signal by an enzyme label.)
Assay [2] has the same target. Briefly: ELISA; pH 7.2. The note with it: Fc fusion.

His-tagged CD47 extracellular domain (ECD) protein (Abclonal, CAT #RP01306) (human), sequence (Q08722 19-139): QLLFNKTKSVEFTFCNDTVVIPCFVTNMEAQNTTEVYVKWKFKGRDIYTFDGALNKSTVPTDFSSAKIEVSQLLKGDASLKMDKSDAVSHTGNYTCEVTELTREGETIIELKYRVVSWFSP

For the substance SIN-303, SIRPαV2 Q52H IgV-IgG1 Fc, the values for the 50% effective concentration (EC50) in assay [1] and in assay [2] were 0.627 nM and 6.92 nM, respectively.

Take SIN-301, SIRPαV2 K53H IgV-IgG1 Fc: the 50% effective concentration (EC50) in assay [1] amounted to 1.35 nM.

With SIN-302, SIRPαV2 R69H IgV-IgG1 Fc, the figures for the EC50 in assay [1] and in assay [2] were 30 nM and 158 nM, respectively.

SIN-304, SIRPαV2 K68H IgV-IgG1 Fc returned an EC50 in assay [1] of 0.772 nM.

Regarding “SIN-300, wild type SIRPαV2 IgV-IgG1 Fc fusion protein”, the EC50 turned out to be 0.667 nM in assay [1] and 3.84 nM in assay [2].

Usually EC50 stands for the concentration needed to bring the measured effect to its halfway point.
